Assay results published in article PMC3967872 (DNA repair, 2014).

T1: His-tagged full-length S. pombe Apn2 with Asn at position 254 (His-Apn2^N254) (S. pombe, UniProt P87175 1-523)
T1 sequence (looked up): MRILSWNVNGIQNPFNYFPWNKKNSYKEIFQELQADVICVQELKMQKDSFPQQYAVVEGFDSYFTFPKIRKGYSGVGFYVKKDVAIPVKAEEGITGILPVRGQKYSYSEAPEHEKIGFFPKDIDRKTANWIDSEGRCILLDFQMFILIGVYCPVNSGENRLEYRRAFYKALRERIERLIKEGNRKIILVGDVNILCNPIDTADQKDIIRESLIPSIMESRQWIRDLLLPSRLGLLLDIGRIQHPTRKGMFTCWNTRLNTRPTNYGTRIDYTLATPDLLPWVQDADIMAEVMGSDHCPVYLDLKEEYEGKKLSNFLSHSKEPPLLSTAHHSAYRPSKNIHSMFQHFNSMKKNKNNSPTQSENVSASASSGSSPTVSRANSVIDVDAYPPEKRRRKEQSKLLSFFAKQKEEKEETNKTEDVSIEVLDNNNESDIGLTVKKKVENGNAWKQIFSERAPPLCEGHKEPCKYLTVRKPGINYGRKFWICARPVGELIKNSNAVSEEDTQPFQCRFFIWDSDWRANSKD

T2: His-tagged full-length SpApn2^N254/S295, catalytically inactive mutant (His-Apn2^S295) (S. pombe, UniProt P87175 1-523, H295S)
T2 sequence (looked up): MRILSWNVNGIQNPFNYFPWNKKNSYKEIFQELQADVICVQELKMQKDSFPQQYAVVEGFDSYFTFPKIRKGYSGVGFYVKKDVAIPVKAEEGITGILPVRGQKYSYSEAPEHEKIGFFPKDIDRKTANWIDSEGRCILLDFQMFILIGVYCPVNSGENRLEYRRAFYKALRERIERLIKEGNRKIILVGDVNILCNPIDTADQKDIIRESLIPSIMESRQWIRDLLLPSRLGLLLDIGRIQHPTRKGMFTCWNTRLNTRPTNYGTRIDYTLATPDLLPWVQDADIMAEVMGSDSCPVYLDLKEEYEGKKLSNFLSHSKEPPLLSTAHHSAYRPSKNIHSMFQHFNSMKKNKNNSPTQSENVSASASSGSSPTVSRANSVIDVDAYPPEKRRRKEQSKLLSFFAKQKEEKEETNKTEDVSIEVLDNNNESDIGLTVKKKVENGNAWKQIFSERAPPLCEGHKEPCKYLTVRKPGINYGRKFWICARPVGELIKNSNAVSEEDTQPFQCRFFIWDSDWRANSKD

B1: GST fusion of S. pombe Myh1(245-461) (domain or fragment, UniProt Q10159 245-461, looked up)
chain: YQEQNVIRDGNTIKYDIEDVPCNICITDIPSKEDLQNWVVARYPVHPAKTKQREERALVVIFQKTDPSTKEKFFLIRKRPSAGLLAGLWDFPTIEFGQESWPKDMDAEFQKSIAQWISNDSRSLIKKYQSRGRYLHIFSHIRKTSHVFYAIASPDIVTNEDFFWISQSDLEHVGMCELGLKNYRAALEIKKRKVTSLSNFKEPKLTSARRIVTKAEC
B2: GST fusion of intact wild-type S. pombe Myh1 (GST-Myh1) (enzyme, UniProt Q10159 1-461, looked up)
chain: MSDSNHSLDLHSYTQLEVERFRESLIQFYDKTKRILPWRKKECIPPSEDSPLEDWEQPVQRLYEVLVSEIMLQQTRVETVKRYYTKWMETLPTLKSCAEAEYNTQVMPLWSGMGFYTRCKRLHQACQHLAKLHPSEIPRTGDEWAKGIPGVGPYTAGAVLSIAWKQPTGIVDGNVIRVLSRALAIHSDCSKGKANALIWKLANELVDPVRPGDFNQALMELGAITCTPQSPRCSVCPISEICKAYQEQNVIRDGNTIKYDIEDVPCNICITDIPSKEDLQNWVVARYPVHPAKTKQREERALVVIFQKTDPSTKEKFFLIRKRPSAGLLAGLWDFPTIEFGQESWPKDMDAEFQKSIAQWISNDSRSLIKKYQSRGRYLHIFSHIRKTSHVFYAIASPDIVTNEDFFWISQSDLEHVGMCELGLKNYRAALEIKKRKVTSLSNFKEPKLTSARRIVTKAEC

Tests used:
Experiment in all cases: pull-down
[1] = target: B1
[2] = target: T1, His-tagged full-length S. pombe Apn2 …
[3] = target: T2, His-tagged full-length …
[4] = target: B2

Binder	binding result [2]	other results
His-tagged full-length S. pombe Apn2 with Ser at position 254 (His-Apn2^S254) (enzyme, UniProt P87175 1-523, looked up) MRILSWNVNGIQNPFNYFPWNKKNSYKEIFQELQADVICVQELKMQKDSFPQQYAVVEGFDSYFTFPKIRKGYSGVGFYVKKDVAIPVKAEEGITGILPVRGQKYSYSEAPEHEKIGFFPKDIDRKTANWIDSEGRCILLDFQMFILIGVYCPVNSGENRLEYRRAFYKALRERIERLIKEGNRKIILVGDVNILCNPIDTADQKDIIRESLIPSIMESRQWIRDLLLPSRLGLLLDIGRIQHPTRKGMFTCWSTRLNTRPTNYGTRIDYTLATPDLLPWVQDADIMAEVMGSDHCPVYLDLKEEYEGKKLSNFLSHSKEPPLLSTAHHSAYRPSKNIHSMFQHFNSMKKNKNNSPTQSENVSASASSGSSPTVSRANSVIDVDAYPPEKRRRKEQSKLLSFFAKQKEEKEETNKTEDVSIEVLDNNNESDIGLTVKKKVENGNAWKQIFSERAPPLCEGHKEPCKYLTVRKPGINYGRKFWICARPVGELIKNSNAVSEEDTQPFQCRFFIWDSDWRANSKD		fold weaker interaction than intact Myh1 [1]: 2 fold
B1	binds	
B2	binds	binding result [3]: binds
GST fusion of S. pombe Myh1(I261A) (enzyme, UniProt Q10159 1-461, looked up) MSDSNHSLDLHSYTQLEVERFRESLIQFYDKTKRILPWRKKECIPPSEDSPLEDWEQPVQRLYEVLVSEIMLQQTRVETVKRYYTKWMETLPTLKSCAEAEYNTQVMPLWSGMGFYTRCKRLHQACQHLAKLHPSEIPRTGDEWAKGIPGVGPYTAGAVLSIAWKQPTGIVDGNVIRVLSRALAIHSDCSKGKANALIWKLANELVDPVRPGDFNQALMELGAITCTPQSPRCSVCPISEICKAYQEQNVIRDGNTIKYDAEDVPCNICITDIPSKEDLQNWVVARYPVHPAKTKQREERALVVIFQKTDPSTKEKFFLIRKRPSAGLLAGLWDFPTIEFGQESWPKDMDAEFQKSIAQWISNDSRSLIKKYQSRGRYLHIFSHIRKTSHVFYAIASPDIVTNEDFFWISQSDLEHVGMCELGLKNYRAALEIKKRKVTSLSNFKEPKLTSARRIVTKAEC	binds	
His- and maltose binding protein (MBP)-tagged SpApn2 residues 1-303 (His-MBP-Apn2^1-303) (domain or fragment, S. pombe, UniProt P87175 1-303, looked up) MRILSWNVNGIQNPFNYFPWNKKNSYKEIFQELQADVICVQELKMQKDSFPQQYAVVEGFDSYFTFPKIRKGYSGVGFYVKKDVAIPVKAEEGITGILPVRGQKYSYSEAPEHEKIGFFPKDIDRKTANWIDSEGRCILLDFQMFILIGVYCPVNSGENRLEYRRAFYKALRERIERLIKEGNRKIILVGDVNILCNPIDTADQKDIIRESLIPSIMESRQWIRDLLLPSRLGLLLDIGRIQHPTRKGMFTCWSTRLNTRPTNYGTRIDYTLATPDLLPWVQDADIMAEVMGSDHCPVYLDLK		binding result [4]: binds
